Laboratory results reported in the supplement of paper PMC9112550, “Optimization of the antimicrobial peptide Bac7 by deep mutational scanning” (BMC Biology, 2022).
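Note: peptides expressed intracellularly from a pBAD plasmid library in pooled LB shake-flask culture, induced with 0.3% L-arabinose, DNA abundance read by NGS, three biological replicates, DESeq2 with apeglm shrinkage.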

Each sequence was assayed on Escherichia coli TOP10 (assay: shrunken log2 fold change of peptide-encoding DNA abundance (4.5 h post-induction vs induction); higher = less antimicrobial activity (less host growth inhibition)). Details: time post-induction: 4.5 h; library: site-saturation at positions 5, 18, 19, 20.
RRIRHRPPRLPRPRPRPARNPRP was tested, and the “shrunken log2 fold change” value was 0.093. In the case of RRIRARPPRLPRPRPRPYREPRP, the “shrunken log2 fold change” value was -0.0268. RRIRPRPPRLPRPRPRPNGKPRP was tested, and the “shrunken log2 fold change” value was -0.257. RRIRRRPPRLPRPRPRPTCMPRP was tested, and the “shrunken log2 fold change” value was 0.315. In the case of RRIRGRPPRLPRPRPRPCQSPRP, the “shrunken log2 fold change” value was 0.108. In the case of RRIRQRPPRLPRPRPRPIDRPRP, the “shrunken log2 fold change” value was 0.118. In the case of RRIRWRPPRLPRPRPRPSPKPRP, the “shrunken log2 fold change” value was 0.403. With RRIRVRPPRLPRPRPRPTPAPRP the “shrunken log2 fold change” value was 0.448. With RRIRPRPPRLPRPRPRPEDDPRP the “shrunken log2 fold change” value was 0.413. In the case of RRIRRRPPRLPRPRPRPCSGPRP, the “shrunken log2 fold change” value was -0.0988. For RRIRGRPPRLPRPRPRPKIPPRP, the “shrunken log2 fold change” value was 0.0163. For RRIRSRPPRLPRPRPRPDHVPRP, the “shrunken log2 fold change” value was -0.0207. For RRIRWRPPRLPRPRPRPQHFPRP, the “shrunken log2 fold change” value was 0.418. In the case of RRIRRRPPRLPRPRPRPHNTPRP, the “shrunken log2 fold change” value was -0.115. In the case of RRIRNRPPRLPRPRPRPWPHPRP, the “shrunken log2 fold change” value was -0.0312. RRIRPRPPRLPRPRPRPSKMPRP was tested, and the “shrunken log2 fold change” value was -0.169. RRIRMRPPRLPRPRPRPWILPRP was tested, and the “shrunken log2 fold change” value was -0.201. With RRIRNRPPRLPRPRPRPPTIPRP the “shrunken log2 fold change” value was 0.244. For RRIRVRPPRLPRPRPRPMINPRP, the “shrunken log2 fold change” value was -0.257. RRIRIRPPRLPRPRPRPYGFPRP was tested, and the “shrunken log2 fold change” value was -0.0889. For RRIRPRPPRLPRPRPRPSMWPRP, the “shrunken log2 fold change” value was -0.252. For RRIRLRPPRLPRPRPRPIQGPRP, the “shrunken log2 fold change” value was -0.226. With RRIRIRPPRLPRPRPRPEAPPRP the “shrunken log2 fold change” value was 0.366. RRIRGRPPRLPRPRPRPTICPRP was tested, and the “shrunken log2 fold change” value was 0.601. For RRIRVRPPRLPRPRPRPDKPPRP, the “shrunken log2 fold change” value was 0.028. With RRIRVRPPRLPRPRPRPVMGPRP the “shrunken log2 fold change” value was 0.216. With RRIRWRPPRLPRPRPRPKGIPRP the “shrunken log2 fold change” value was -0.0761. With RRIRHRPPRLPRPRPRPNVVPRP the “shrunken log2 fold change” value was 0.015. For RRIRGRPPRLPRPRPRPHCWPRP, the “shrunken log2 fold change” value was 0.69. In the case of RRIRRRPPRLPRPRPRPQNTPRP, the “shrunken log2 fold change” value was -0.218. For RRIRGRPPRLPRPRPRPRYMPRP, the “shrunken log2 fold change” value was -0.0195. RRIRLRPPRLPRPRPRPCTPPRP was tested, and the “shrunken log2 fold change” value was -0.172. RRIRYRPPRLPRPRPRPCSSPRP was tested, and the “shrunken log2 fold change” value was -0.941. RRIRLRPPRLPRPRPRPRVVPRP was tested, and the “shrunken log2 fold change” value was -0.0437. With RRIRFRPPRLPRPRPRPWGCPRP the “shrunken log2 fold change” value was -0.225. RRIRLRPPRLPRPRPRPIDHPRP was tested, and the “shrunken log2 fold change” value was -0.154. In the case of RRIRSRPPRLPRPRPRPYQRPRP, the “shrunken log2 fold change” value was -0.103. For RRIRARPPRLPRPRPRPMEPPRP, the “shrunken log2 fold change” value was 0.0999. In the case of RRIRHRPPRLPRPRPRPCIEPRP, the “shrunken log2 fold change” value was -0.00547. For RRIRKRPPRLPRPRPRPAMPPRP, the “shrunken log2 fold change” value was 0.788. In the case of RRIRARPPRLPRPRPRPSKRPRP, the “shrunken log2 fold change” value was 0.0155. With RRIRARPPRLPRPRPRPEGHPRP the “shrunken log2 fold change” value was 0.223. In the case of RRIRSRPPRLPRPRPRPSGFPRP, the “shrunken log2 fold change” value was 0.0519. In the case of RRIRSRPPRLPRPRPRPFARPRP, the “shrunken log2 fold change” value was -0.172. RRIRIRPPRLPRPRPRPAEFPRP was tested, and the “shrunken log2 fold change” value was -0.0793. RRIRKRPPRLPRPRPRPGNCPRP was tested, and the “shrunken log2 fold change” value was 0.0147. RRIRSRPPRLPRPRPRPALNPRP was tested, and the “shrunken log2 fold change” value was 0.161. In the case of RRIRYRPPRLPRPRPRPNLIPRP, the “shrunken log2 fold change” value was -0.438. For RRIRHRPPRLPRPRPRPMTEPRP, the “shrunken log2 fold change” value was 0.0178. With RRIRFRPPRLPRPRPRPNYGPRP the “shrunken log2 fold change” value was -0.125. In the case of RRIRMRPPRLPRPRPRPAGTPRP, the “shrunken log2 fold change” value was 0.627. With RRIRWRPPRLPRPRPRPCKIPRP the “shrunken log2 fold change” value was -0.114. For RRIRMRPPRLPRPRPRPRTYPRP, the “shrunken log2 fold change” value was -0.00485. In the case of RRIRHRPPRLPRPRPRPPFVPRP, the “shrunken log2 fold change” value was 0.0135. For RRIRSRPPRLPRPRPRPNSYPRP, the “shrunken log2 fold change” value was -0.00251. RRIRHRPPRLPRPRPRPLTQPRP was tested, and the “shrunken log2 fold change” value was -0.417. With RRIRYRPPRLPRPRPRPYHAPRP the “shrunken log2 fold change” value was -0.194. RRIRARPPRLPRPRPRPSATPRP was tested, and the “shrunken log2 fold change” value was 1.26. In the case of RRIRFRPPRLPRPRPRPIKDPRP, the “shrunken log2 fold change” value was -0.234. With RRIRKRPPRLPRPRPRPAVLPRP the “shrunken log2 fold change” value was -0.025. In the case of RRIRTRPPRLPRPRPRPTKWPRP, the “shrunken log2 fold change” value was -0.0752. RRIRCRPPRLPRPRPRPPMKPRP was tested, and the “shrunken log2 fold change” value was 0.242. In the case of RRIRRRPPRLPRPRPRPMSVPRP, the “shrunken log2 fold change” value was -0.0792. With RRIRFRPPRLPRPRPRPEHIPRP the “shrunken log2 fold change” value was -0.161. RRIRCRPPRLPRPRPRPMCGPRP was tested, and the “shrunken log2 fold change” value was -0.0984. In the case of RRIRRRPPRLPRPRPRPRHDPRP, the “shrunken log2 fold change” value was 0.0104. For RRIRRRPPRLPRPRPRPDWVPRP, the “shrunken log2 fold change” value was 0.037. For RRIRTRPPRLPRPRPRPVTFPRP, the “shrunken log2 fold change” value was -0.0266. With RRIRGRPPRLPRPRPRPDCSPRP the “shrunken log2 fold change” value was 0.798. With RRIRVRPPRLPRPRPRPEMMPRP the “shrunken log2 fold change” value was 0.0629. With RRIRHRPPRLPRPRPRPYIVPRP the “shrunken log2 fold change” value was -0.191. In the case of RRIRKRPPRLPRPRPRPMHIPRP, the “shrunken log2 fold change” value was 0.078. RRIRTRPPRLPRPRPRPGIPPRP was tested, and the “shrunken log2 fold change” value was -0.394. With RRIRQRPPRLPRPRPRPEEWPRP the “shrunken log2 fold change” value was 0.0824. With RRIRHRPPRLPRPRPRPCVVPRP the “shrunken log2 fold change” value was 0.000418.
